According to patent publication US20220089710A1, “Method of Treating Signs and Symptoms of Osteoarthritis” (Pfizer Inc., priority 2019, published 2022):

Tests used:
[1] = test system: patients with moderate to severe OA of the hip or knee; experiment: Example 1: safety assessments (adverse events, neurological assessments); format: in vivo, human; settings: SC 2.5 mg and 2.5/5 mg regimens
From the text: Safety assessments included: adverse event (AE) reporting; laboratory testing; 12-lead electrocardiogram; sitting vital signs; orthostatic blood pressure assessments; physical examinations; musculoskeletal examinations; neurological examinations reported using the Neuropathy Impairment Score (Dyck et al., Neurology. 1995; 45(6):1115-1121); Survey of Autonomic Symptoms scores (Zilliox et al., Neurology. 2011; 76(12):1099-1105); adjudication of joint safety events including total joint replacements (TJRs); and anti-drug antibody assessments. AEs were coded using MedDRA v21.0. AE severity and relationship to study treatment were assessed by the investigator.
Patients meeting protocol-specified criteria were further evaluated for peripheral neuropathy and/or sympathetic autonomic neuropathy. Neurological examinations were conducted at all clinic visits by investigators or designated physicians who received protocol-required training, and findings were recorded using the Neuropathy Impairment Score (Dyck et al).

[2] = test system: patients with osteoarthritis (OA) of the knee or hip; experiment: Example 3: treatment-emergent adverse events and deaths, Safety Population;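 note: seven SC injections given 8 weeks apart plus twice-daily oral study medication up to Week 56, Safety Population of all patients dosed at least once SC, analyzed by treatment actually received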
Description: Patients received a total of seven SC injections, each separated by 8 weeks and daily oral (PO) study medication BID through Week 56.
The Intent-to-Treat (ITT) Population included all patients who were randomized and received at least one dose of SC study drug. This analysis set was primary for all efficacy endpoints, which were analyzed according to randomization assignment. The Safety Population included all patients who received at least one dose of SC study treatment. This analysis set was primary for all safety endpoints, which were analyzed according to treatment received.

Substance: tanezumab: humanized immunoglobulin G Type 2 (IgG2) monoclonal antibody directed against human nerve growth factor (NGF); SEQ ID NOs: 9 or 11 and 10
- overall safety and tolerability [1]: generally safe and well-tolerated
- deaths: patients ([2]; 2.5 mg SC, during the safety follow-up period): 2
- deaths: patients ([2]; 2.5 mg SC, during the treatment period): 2
- Adverse Event: % of patients ([2]; 2.5 mg SC, treatment period): 62.8%
- Adverse Event: number of patients ([2]; 2.5 mg SC, treatment period): 629
- Arthralgia: % of patients ([2]; 2.5 mg SC, treatment period): 13.3%
- Arthralgia: number of patients ([2]; 2.5 mg SC, treatment period): 133
- Back pain: % of patients ([2]; 2.5 mg SC, treatment period): 3.4%
- Back pain: number of patients ([2]; 2.5 mg SC, treatment period): 34
- Discontinued from study (adverse event): % of patients ([2]; 2.5 mg SC, treatment period): 2.3%
- Discontinued from study (adverse event): number of patients ([2]; 2.5 mg SC, treatment period): 23
- Discontinued study drug and continued study (adverse event): % of patients ([2]; 2.5 mg SC, treatment period): 5.3%
- Discontinued study drug and continued study (adverse event): number of patients ([2]; 2.5 mg SC, treatment period): 53
- Fall: % of patients ([2]; 2.5 mg SC, treatment period): 6.5%
- Fall: number of patients ([2]; 2.5 mg SC, treatment period): 65
- Headache: % of patients ([2]; 2.5 mg SC, treatment period): 5.6%
- Headache: number of patients ([2]; 2.5 mg SC, treatment period): 56
- Joint swelling: % of patients ([2]; 2.5 mg SC, treatment period): 4.3%
- Joint swelling: number of patients ([2]; 2.5 mg SC, treatment period): 43
- Musculoskeletal pain: % of patients ([2]; 2.5 mg SC, treatment period): 4.3%
- Musculoskeletal pain: number of patients ([2]; 2.5 mg SC, treatment period): 43
- Nasopharyngitis: % of patients ([2]; 2.5 mg SC, treatment period): 5.7%
- Nasopharyngitis: number of patients ([2]; 2.5 mg SC, treatment period): 57
- Osteoarthritis: % of patients ([2]; 2.5 mg SC, treatment period): 3.9%
- Osteoarthritis: number of patients ([2]; 2.5 mg SC, treatment period): 39
- Pain in extremity: % of patients ([2]; 2.5 mg SC, treatment period): 3.1%
- Pain in extremity: number of patients ([2]; 2.5 mg SC, treatment period): 31
- Paraesthesia: % of patients ([2]; 2.5 mg SC, treatment period): 1.8%
- Paraesthesia: number of patients ([2]; 2.5 mg SC, treatment period): 18
- Peripheral edema: % of patients ([2]; 2.5 mg SC, treatment period): 1.9%
- Peripheral edema: number of patients ([2]; 2.5 mg SC, treatment period): 19
- Rapidly progressive osteoarthritis (adverse event): % of patients ([2]; 2.5 mg SC, treatment period): 1.8%
- Rapidly progressive osteoarthritis (adverse event): number of patients ([2]; 2.5 mg SC, treatment period): 18
- Serious AE Acute kidney injury: n ([2]; 2.5 mg SC, treatment period): 0
- Serious AE Acute myocardial infarction: % ([2]; 2.5 mg SC, treatment period): 1.0%
- Serious AE Acute myocardial infarction: n ([2]; 2.5 mg SC, treatment period): 1
- Serious AE Arthralgia: % ([2]; 2.5 mg SC, treatment period): 0.4%
- Serious AE Arthralgia: n ([2]; 2.5 mg SC, treatment period): 4
- Serious AE Cellulitis: n ([2]; 2.5 mg SC, treatment period): 0
- Serious AE Cerebrovascular accident: % ([2]; 2.5 mg SC, treatment period): 0.2%
- Serious AE Cerebrovascular accident: n ([2]; 2.5 mg SC, treatment period): 2
- Serious AE Gastrointestinal hemorrhage: n ([2]; 2.5 mg SC, treatment period): 0
- Serious AE Intervetebral disc protrusion: n ([2]; 2.5 mg SC, treatment period): 0
- Serious AE Meniscus injury: % ([2]; 2.5 mg SC, treatment period): 0.1%
- Serious AE Meniscus injury: n ([2]; 2.5 mg SC, treatment period): 1
- Serious AE Osteoarthritis: % ([2]; 2.5 mg SC, treatment period): 0.9%
- Serious AE Osteoarthritis: n ([2]; 2.5 mg SC, treatment period): 9
- Serious AE Osteonecrosis: n ([2]; 2.5 mg SC, treatment period): 0
- Serious AE Pneumonia: % ([2]; 2.5 mg SC, treatment period): 0.1%
- Serious AE Pneumonia: n ([2]; 2.5 mg SC, treatment period): 1
- Serious AE RPOA: % ([2]; 2.5 mg SC, treatment period): 0.3%
- Serious AE RPOA: n ([2]; 2.5 mg SC, treatment period): 3
- Serious AE Subchondral insufficiency fracture: % ([2]; 2.5 mg SC, treatment period): 0.1%
- Serious AE Subchondral insufficiency fracture: n ([2]; 2.5 mg SC, treatment period): 1
- Serious Adverse Event (any event): % of patients ([2]; 2.5 mg SC, treatment period): 5.1%
- Serious Adverse Event (any event): number of patients ([2]; 2.5 mg SC, treatment period): 51
- Severe Adverse Event: % of patients ([2]; 2.5 mg SC, treatment period): 4.5%
- Severe Adverse Event: number of patients ([2]; 2.5 mg SC, treatment period): 45
- Upper respiratory tract infection: number of patients ([2]; 2.5 mg SC, treatment period): 57
- deaths: patients ([2]; 5 mg SC, after patient discontinuation from the study): 1
- deaths: patients ([2]; 5 mg SC, during the safety follow-up period): 1
- deaths: patients ([2]; 5 mg SC, during the treatment period): 3
- Adverse Event: % of patients ([2]; 5 mg SC, treatment period): 67.1%
- Adverse Event: number of patients ([2]; 5 mg SC, treatment period): 670
- Arthralgia: % of patients ([2]; 5 mg SC, treatment period): 16.5%
- Arthralgia: number of patients ([2]; 5 mg SC, treatment period): 165
- Back pain: % of patients ([2]; 5 mg SC, treatment period): 5.5%
- Back pain: number of patients ([2]; 5 mg SC, treatment period): 55
- Discontinued from study (adverse event): % of patients ([2]; 5 mg SC, treatment period): 2.0%
- Discontinued from study (adverse event): number of patients ([2]; 5 mg SC, treatment period): 20
- Discontinued study drug and continued study (adverse event): % of patients ([2]; 5 mg SC, treatment period): 8.8%
- Discontinued study drug and continued study (adverse event): number of patients ([2]; 5 mg SC, treatment period): 88
- Fall: % of patients ([2]; 5 mg SC, treatment period): 5.3%
- Fall: number of patients ([2]; 5 mg SC, treatment period): 53
- Headache: % of patients ([2]; 5 mg SC, treatment period): 4.5%
- Headache: number of patients ([2]; 5 mg SC, treatment period): 45
- Joint swelling: % of patients ([2]; 5 mg SC, treatment period): 4.8%
- Joint swelling: number of patients ([2]; 5 mg SC, treatment period): 48
- Musculoskeletal pain: % of patients ([2]; 5 mg SC, treatment period): 4.1%
- Musculoskeletal pain: number of patients ([2]; 5 mg SC, treatment period): 41
- Nasopharyngitis: % of patients ([2]; 5 mg SC, treatment period): 6.7%
- Nasopharyngitis: number of patients ([2]; 5 mg SC, treatment period): 67
- Osteoarthritis: % of patients ([2]; 5 mg SC, treatment period): 5.4%
- Osteoarthritis: number of patients ([2]; 5 mg SC, treatment period): 54
- Pain in extremity: % of patients ([2]; 5 mg SC, treatment period): 3.7%
- Pain in extremity: number of patients ([2]; 5 mg SC, treatment period): 37
- Paraesthesia: % of patients ([2]; 5 mg SC, treatment period): 3.0%
- Paraesthesia: number of patients ([2]; 5 mg SC, treatment period): 30
- Peripheral edema: % of patients ([2]; 5 mg SC, treatment period): 4.3%
- Peripheral edema: number of patients ([2]; 5 mg SC, treatment period): 43
- Rapidly progressive osteoarthritis (adverse event): % of patients ([2]; 5 mg SC, treatment period): 4.1%
- Rapidly progressive osteoarthritis (adverse event): number of patients ([2]; 5 mg SC, treatment period): 41
- Serious AE Acute kidney injury: % ([2]; 5 mg SC, treatment period): 0.2%
- Serious AE Acute kidney injury: n ([2]; 5 mg SC, treatment period): 2
- Serious AE Acute myocardial infarction: % ([2]; 5 mg SC, treatment period): 0.1%
- Serious AE Acute myocardial infarction: n ([2]; 5 mg SC, treatment period): 1
- Serious AE Arthralgia: % ([2]; 5 mg SC, treatment period): 0.9%
- Serious AE Arthralgia: n ([2]; 5 mg SC, treatment period): 9
- Serious AE Cellulitis: % ([2]; 5 mg SC, treatment period): 0.2%
- Serious AE Cellulitis: n ([2]; 5 mg SC, treatment period): 2
- Serious AE Cerebrovascular accident: n ([2]; 5 mg SC, treatment period): 0
- Serious AE Gastrointestinal hemorrhage: n ([2]; 5 mg SC, treatment period): 0
- Serious AE Intervetebral disc protrusion: % ([2]; 5 mg SC, treatment period): 0.2%
- Serious AE Intervetebral disc protrusion: n ([2]; 5 mg SC, treatment period): 2
- Serious AE Meniscus injury: % ([2]; 5 mg SC, treatment period): 0.3%
- Serious AE Meniscus injury: n ([2]; 5 mg SC, treatment period): 3
- Serious AE Osteoarthritis: % ([2]; 5 mg SC, treatment period): 1.7%
- Serious AE Osteoarthritis: n ([2]; 5 mg SC, treatment period): 17
- Serious AE Osteonecrosis: % ([2]; 5 mg SC, treatment period): 0.2%
- Serious AE Osteonecrosis: n ([2]; 5 mg SC, treatment period): 2
- Serious AE Pneumonia: % ([2]; 5 mg SC, treatment period): 0.2%
- Serious AE Pneumonia: n ([2]; 5 mg SC, treatment period): 2
- Serious AE RPOA: % ([2]; 5 mg SC, treatment period): 1.1%
- Serious AE RPOA: n ([2]; 5 mg SC, treatment period): 11
- Serious AE Subchondral insufficiency fracture: % ([2]; 5 mg SC, treatment period): 0.4%
- Serious AE Subchondral insufficiency fracture: n ([2]; 5 mg SC, treatment period): 4
- Serious Adverse Event (any event): % of patients ([2]; 5 mg SC, treatment period): 8.0%
- Serious Adverse Event (any event): number of patients ([2]; 5 mg SC, treatment period): 80
- Severe Adverse Event: % of patients ([2]; 5 mg SC, treatment period): 6.8%
- Severe Adverse Event: number of patients ([2]; 5 mg SC, treatment period): 68
- Upper respiratory tract infection: number of patients ([2]; 5 mg SC, treatment period): 45
